Where two headings read alike, the source gives them in different places.
Experiments:
[1] = biological target: Cse4 150-229 (sedimentation sample) (budding yeast) (UniProt P36012); test: AUC
[2] = biological target: Cse4 150-229 (sedimentation sample) (budding yeast) (UniProt P36012); test: AUC; remark: listed apart in the source
[3] = biological target: single chain Cse4-H4 (His6-KK-Cse4_(151–207)-LVPRGS-H4_(45–103)) (budding yeast | not stated) (UniProt P36012); test: ITC

Chain of Scm3 84-169 (Q12334 84-169): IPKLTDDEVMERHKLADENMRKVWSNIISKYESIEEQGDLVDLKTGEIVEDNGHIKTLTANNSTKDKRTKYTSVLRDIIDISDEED

Row | stoichiometry N [1] | stoichiometry N [2] | fold reduction of the binding affinity against the wild type [3] [fold] | Substance
1 | 1 | 1 | – | Scm3 84-169 (from UniProt Q12334 84-169) (domain or fragment)
2 | – | – | 85 | Scm3 Ile110Asp/Ile117Asn (from UniProt Q12334 83-169) (domain or fragment)
3 | 1 | 1 | – | histone H4, full length (from UniProt P02309 1-103) (natural protein)
